Results on one protein are retold here after patent US20220144890.

The target in data set [1] is H2 peptide derived from GBR.
Data set [2] addresses H2 peptide derived from MAP1LC3B.
Data set [3] deals with H2 peptide derived from MAP1LC3C.
Data set [4] has as its target T1, H2 α-helical peptide derived from GBRL2 (GABARAPL2 alpha-helix 2 domain).
T1 chain: VAQFMWIIRKR

B1: recombinant ATG4B (protein)
chain: MDAATLTYDTLRFAEFEDFPETSEPVWILGRKYSIFTEKDEILSDVASRLWFTYRKNFPAIGGTGPTSDTGWGCMLRCGQMIFAQALVCRHLGRDWRWTQRKRQPDSYFSVLNAFIDRKDSYYSIHQIAQMGVGEGKSIGQWYGPNTVAQVLKKLAVFDTWSSLAVHIAMDNTVVMEEIRRLCRTSVPCAGATAFPADSDRHCNGFPAGAEVTNRPSPWRPLVLLIPLRLGLTDINEAYVETLKHCFMMPQSLGVIGGKPNSAHYFIGYVGEELIYLDPHTTQPAVEPTDGCFIPDESFHCQHPPCRMSIAELDPSIAVGFFCKTEDDFNDWCQQVKKLSLLGGALPMFELVELQPSHLACPDVLNLSLDSSDVERLERFFDSEDEDFEILSL
In the case of B1, the “ATG4B cleavage of chimeric Myc-GBRL2-S-tag substrate (blot)” value in data set [1] is “inhibited ATG4B cleavage activity in dose dependent manner”; in data set [2], “inhibited ATG4B cleavage activity in dose dependent manner, while H2 peptides derived from MAP1LC3B and GBRL2 had the strongest inhibition on ATG4B”; in data set [3] it was “inhibited ATG4B cleavage activity in dose dependent manner”; in data set [4] it was “inhibited ATG4B cleavage activity in dose dependent manner, while H2 peptides derived from MAP1LC3B and GBRL2 had the strongest inhibition on ATG4B”.
